Results as given in article PMC3184955.
Values joined by “and” are separate entries in the source; they are usually repeats but may differ in a detail not shown here. Identical values can stand only once. Like-named read-outs stand apart in the source and are kept apart here.

Columns and labels:
Test in all cases: AUC; sedimentation velocity, 40,000 rpm, 25°C, 2 mg/ml, 10 mM Tris, ~pH 7.0; c(s) model (SEDFIT)
[1] = target: Amel-C (amelogenin C-terminal fragment, AA 86-180) (mouse)
[2] = target: full-length recombinant mouse amelogenin (M180) (mouse)
[3] = target: full-length recombinant mouse amelogenin (M180) (mouse); remark: listed apart in the source

percent as larger aggregations [1] [%] | percent as tetramers [1] [%] | stoichiometry N [1] | stoichiometry N [2] | stoichiometry N [3] | Substance
2 | 7.5 | 4 and 6 |  |  | Amel-C (amelogenin C-terminal fragment, AA 86-180) (domain or fragment)
 |  |  | 40 | 50 | full-length recombinant mouse amelogenin (M180) (natural protein)
